Results: article PMC7580981 (2020)

Legend:
[1] = target: two polymerase subunits (PA and PB1) of IBV polymerase (Pol2): PA-His, PB1 (influenza B virus); experiment: SPR
[2] = target: IBV polymerase trimeric complex (Pol3): PA-His, PB1, PB2 (influenza B virus); experiment: SPR

B1: human ANP32A, purified (GST cleaved) (natural protein)
chain: MEMGRRIHLELRNRTPSDVKELVLDNSRSNEGKLEGLTDEFEELEFLSTINVGLTSIANLPKLNKLKKLELSDNRVSGGLEVLAEKCPNLTHLNLSGNKIKDLSTIEPLKKLENLKSLDLFNCEVTNLNDYRENVFKLLPQLTYLDGYDRDDKEAPDSDAEGYVEGLDDEEEDEDEEEYDEDAQVVEDEEDEDEEEEGEEEDVSGEEEEDEEGYNDGEVDDEEDEEELGEEERGQKRKREPEDEGEDDD
In the case of B1, the Kd [1] is reported as over 1000 µM.

B2: human ANP32A C terminal truncated (huANP32A_165T), purified (GST cleaved) (domain or fragment)
chain: MEMGRRIHLELRNRTPSDVKELVLDNSRSNEGKLEGLTDEFEELEFLSTINVGLTSIANLPKLNKLKKLELSDNRVSGGLEVLAEKCPNLTHLNLSGNKIKDLSTIEPLKKLENLKSLDLFNCEVTNLNDYRENVFKLLPQLTYLDGYDRDDKEAPDSDAEGYVE
B2 was tested, and the Kd [2] was over 1000 µM.
